Source: the DeepSol protein solubility set

Test: soluble on expression in E. coli; label from the status in PepcDB or PDB records

| Sequence | soluble on expression in E. coli |
| --- | --- |
| MKKSSLNNLEYLDISQEVNALQVPNTPFLSYLLGAGKVEAAKSTEIKWREYGMNNDDSSAQLEGGEYADAESDRTWFNNYTEIFRKSTSVSGTLDAINVDGVGNELNSQVALRATEMKIDLNRKLIVGVKADESGSKGRQMNGILNLISSTNKVETAAAGAVTRKDIDALFKTMFQKGYMGEKLCLVAPDMQELMIDQLDEKSTKIVQFGDKLTFGLQLGNIVSNYGSGIALIEPNLPNGTIAAIDTNYVKLRPLREWRAEELAKTTDSRRIGLVGEYSIEYKASNSGAILNLKA | not soluble |
| MKKVQPLNPEQVKRFLETAKQDPLYPAFLLALGTGLRRGEILGLRWQDLDLQKGILQVRQSLIRTREGLKFEEPKTEKSRRQIPLPPSVVAALKRHKAWVNQNKLILGPDYEDHDLVFPVENGRPRDPKGFAEYFNRLLDKAGLPHIRLHDLRHTHATLLLLEGVHPKVVQERLGHSTVSITLDIYSHILPGLQEKAAERIDGLLQPKENPSPKEGTIKLEHHHHHH | soluble |
| MKKVRDPLEVTVVGQNIIVADDNYKWLQILPEKKRYSITVMFDNKGNPLEYYFDINIKNITQKGNARTVDLCLDVLALPSGEYELVDEDDLMFALESEQIT | not soluble |
| MKKWFLLLIASLVGYIAYEDLTVGTLPASSKTPVVRENIGIPAYKVIKIKAGDTLLSIAEREQQGPLPVSIETLIRDFEKLNPEAKADALQIGKTYKIPVYEK | not soluble |
| MKKWLALFVFGMVSLFATSAHAESYETTKTLKVYESRSFNSPVKKELQPGERVYVTNQHPSGWWKISGGFIAPEGAKVEINRTFEAFDWINMDSAKYVFSPQTVIARDGTLRGEILIDTYLGQKWTSVNGMPQIMKQNFAAYSSPEAKNPDAWFAPQTVNILQTKENGWSLINTYLGPKWIVRYPHVEHINRDFYAYNEPKYMHHGVKFSAQSVRVLQQGENGWKKIKAEVGEKWIAPQGSYYHVPNVFTAFDQPFGRAIGTFAPQTVFVVEESTTSFGWLKIRTYLGDSWIRTNRN | not soluble |
| MKKWLLAAGLGLALATSAQAADKIAIVNMGSLFQQVAQKTGVSNTLENEFKGRASELQRMETDLQAKMKKLQSMKAGSDRTKLEKDVMAQRQTFAQKAQAFEQDRARRSNEERGKLVTRIQTAVKSVANSQDIDLVVDANAVAYNSSDVKDITADVLKQVK | soluble |
| MKKYYVRCKDSKGENASLVIEALSPEHAKEQAYEVYEVGDIYNVSLGEGKSKNCLDRKYSPYIKNDNGKAITIFSLEHHHHHH | not soluble |
| MKLIFLSGVKRSGKDTTADFIMSNYSAVKYQLAGPIKDALAYAWGVFAANTDYPCLTRKEFEGIDYDRETNLNLTKLEVITIMEQAFCYLNGKSPIKGVFVFDDEGKESVNFVAFNKITDVINNIEDQWSVRRLMQALGTDLIVNNFDRMYWVKLFALDYLDKFNSGYDYYIVPDTRQDHEMDAARAMGATVIHVVRPGQKSNDTHITEAGLPIRDGDLVITNDGSLEELFSKIKNTLKVL | soluble |
| MKLLKVAAIAAIVFSGSALAGVVPQYGGGGGNHGGGGNNSGPNSELNIYQYGGGNSALALQADARNSDLTITQHGGGNGADVGQGSDDSSIDLTQRGFGNSATLDQWNGKDSHMTVKQFGGGNGAAVDQTASNSTVNVTQVGFGNNATAHQY | not soluble |
| MKLMAQLGKLLKEQKYDRQLRLWGDHGQEALESAHVCLINATATGTEILKNLVLPGIGSFTIIDGNQVSGEDAGNNFFLQRSSIGKNRAEAAMEFLQELNSDVSGSFVEESPENLLDNDPSFFCRFTVVVATQLPESTSLRLADVLWNSQIPLLICRTYGLVGYMRIIIKEHPVIESHPDNALEDLRLDKPFPELREHFQSYDLDHMEKKDHSHTPWIVIIAKYLAQWYSETNGRIPKTYKEKEDFRDLIRQGILKNENGAPEDEENFEEAIKNVNTALNTTQIPSSIEDIFNDDRCINITKQTPSFWILARALKEFVAKEGQGNLPVRGTIPDMIADSGKYIKLQNVYREKAKKDAAAVGNHVAKLLQSIGQAPESISEKELKLLCSNSAFLRVVRCRSLAEEYGLDTINKDEIISSMDNPDNEIVLYLMLRAVDRFHKQQGRYPGVSNYQVEEDIGKLKSCLTGFLQEYGLSVMVKDDYVHEFCRYGAAEPHTIAAFLGGAAAQEVIKIITKQFVIFNNTYIYSGMSQTSATFQL | soluble |
| MKLPGPDHPISITANPNGVRISADGKVIAETRRALTLQEASYPPVQYIPREDADMRLLEKTARVTHCPYKGDASYFSIVAGGEPQANAVWSYENPFPAMAEIAGYLAFYPQKVQTEEFKP | not soluble |
| MKLTLEEGTSLVGYVRNVIKQYLKGEEPDIQKYPDKFNNVFGVFVSLHTHPEHDLRGCIGIPEPTMSLIDAIKETSISAAVHDPRFQPLKHSELKNTIIEVSVLTPPEDVEVEDSMEYLEKLEVGRDGLIIEFGPYRGLLLPQVATEYNWDTKQFLSNLCLKAGLPTTAWIEYDVKIKSFQAQVFEELIPNGPVVEKSTYTGCLEHHHHHH | soluble |
| MKLTLKNLSMAIMMSTIVMGSSAMAADSNEKIVIAHRGASGYLPEHTLPAKAMAYAQGADYLEQDLVMTKDDNLVVLHDHYLDRVTDVADRFPDRARKDGRYYAIDFTLDEIKSLKFTEGFDIENGKKVQTYPGRFPMGKSDFRVHTFEEEIEFVQGLNHSTGKNIGIYPEIKAPWFHHQEGKDIAAKTLEVLKKYGYTGKDDKVYLQCFDADELKRIKNELEPKMGMELNLVQLIAYTDWNETQQKQPDGSWVNYNYDWMFKPGAMKQVAEYADGIGPDYHMLIEETSQPGNIKLTGMVQDAQQNKLVVHPYTVRSDKLPEYTPDVNQLYDALYNKAGVNGLFTDFPDKAVKFLNKE | soluble |
| MKLTQLDLSHNNLSVIPTWALTYLHSLQILHLENNRIDVLRSNTFDETQLNNLQFLYLDNNQLRIIPNLAFNHLRLVVLMLANNRITEIQKMSLPQTLKFLVLRNNLLTQIPYVALNDLKTLQSIDLEGNNITHLMDTNEVTFESEMKVILRNNKVRRLDKHSFRSFRKIRELDISYNQIQTVEDSSFETVGHMQSLDLSYNRIAYLPRGMLKNFAKTLKTLKLAENMIHATPEALRDLRNLTHLNLNGNKLNRIDGDVLKGCTDTLVELFIANNYLEHIPHGVLSGMKQLEHLDISKNKIMSLKKPTSLLSITKEETSTVRRLNLAGNRINNMSDYLIFEHMPLLTYVDVSFNRIRFISPRVFEKLKNLESLFLQNNQLAHFPSLFRLDKLRHLMLDNNQIQKIDNFSLADLPKLQHLSLAGNQLDIITENMFGSSSSSELKSLNLAHNKIHSISSRSFSDLDNLQQLRLSHNNIRTITSMTFSNLRNLRYLDLSHNRIIKILPSALYQLPALDVLHLDHNNLNEIDRDAFRSFSDLQSLKLSHNAFRRFSCEFLGSISQVHQLDLSSNQINEIDIFCIARGIRKLSLASNSVEKINRKLLQDATELTSIDISHNGIIDVDSDAFCECRKLSHIKLSHNYIRNLWKGTRVCIPWISHLTTFCFFTKEHLERTISFSYIIVDSSQLTSFGNLSILSFANNKVDSIEDGAFENLLSLKILDLSNNPVTSWSPTAFRDLSHSISSINMANTGLFSMPKFSHRSIQSLNISCNKIYELSEKDLAPLTKVVALDISHNNLKQISSMAFEPLIHLKQLNVSANPITHLTNEHIQQLYKLYNIPDMARPYQISSILSNLPPLHTIYVDIKESALDRQFYTADTRLLRHLVVAGRNLTKIEVGAFATIRGFRVRIEIHNSSIEEFPSRIFDTLTGISILSLSLTDNKLTTFNPFQSTVAPAVNQHGTILHSLELKNNPIKCDCQFKWMDDFIRVTKFLSDHHISHDFDKVECADAQSSNLESFASAANELFSYKTKMTLLSKSEDFGLECAVKYSNPLKPLIYVLMLVCLSYL | not soluble |
| MKMATDDHQPPMVRGRRIKLKYAHAGGYNPPIVVIHGNMVRELPDSYKRYLMNYFRKSLEIMGTPIRINFQNSENPFENRANKLTLSQERKRKRMMSVVKNRKK | not soluble |
